Measured values from US20150148405A1, “Expression Construct for a Lin28-Resistant Let-7 Precursor MicroRNA” (THE JOHNS HOPKINS UNIVERSITY, priority 2012, published 2015).

Columns and labels:
Assay type in all cases: cell-based, mouse
mature miRNA = experiment: miRNA profiling arrays (Taqman Rodent MicroRNA Array A); details: BDNF 30 min, plus Actinomycin-D
Method: Murine hippocampal cultures were preincubated for 10-20 minutes with […] Actinomycin D and either mock- or BDNF- (100 ng/mL) stimulated for 30 minutes before harvesting.
For miRNA arrays, […] of total RNA for each sample was reverse-transcribed with stem-looped Megaplex RT Primers (Applied Biosystems) in a final volume of 7.5 μL according to manufacturer's instructions: preincubation at 4° C. for 5 min; 16° C. for 2 min, 42° C. for 1 min, 50° C. for 1 sec, 40 cycles; 85° C. for 5 min. The entire cDNA RT product (7.5 μk) was subjected to RT-qPCR on an Applied Biosystems 7900HT Fast Real-Time PCR system using Taqman Rodent MicroRNA Array A. Data were compiled in SDS RQ Manager 1.2.1 and analyzed in Data Assist 2.0 (Applied Biosystems); RQ was calculated as 2^−LCtBDNF/2^LCtmock where LCt=(cycle threshold for miRNA of interest)−(cycle threshold for reference control) (Schmittgen and Livak, 2008). Thresholds and cycle threshold (Ct) values were determined using default settings and the maximum allowable Ct value was set at 35.0 inclusive. Data were normalized by arithmetic mean using MammU6 (4395470) and snoRNA202 (4380914) reference RNAs as controls. miRNA array data are reposited with the NCBI Gene Expression Omnibus (GEO). […]

KCC2 mRNA = experiment: RT-qPCR of mRNA abundance; details: control neurons, BDNF 100 ng/mL, 2 hours
Method: For analysis of mRNA abundance: 1 μg of RNA was immediately reverse-transcribed into cDNA with a taqman reverse transcripton kit (Applied Biosystems) and a mixture of random decamer and oligo(dT) primers in a final volume of 30 μL and subjected to TaqMan Gene Expression Assays (Applied Biosystems) for GluR1 (assay ID: Mm00433753_m1), CaMKIIu (Mm00437967_m1), Homer2 (Mm01314936_m1), KCC2 (Mm00803929_m1), Kv1.1 (Mm00439977_s1), GW182 (Mm00523487_m1), GAPDH (Mm99999915_g1), and β-tubulin-III (Mm00727586_s1). RT-qPCR was performed using a Stratagene Mx3000P machine and software in 20 μL reactions on a 96-well optical plate at 95° C. for 5 min, followed by 40 cycles of 95° C. for 30 sec, 55° C. for 1 min and 72° C. for 30 sec. The threshold and threshold cycle (Ct) values were determined using default settings. Standard curves were constructed and used for quantitation of target transcript abundance. In this method, 1:5 dilution series of an independent Standard sample are amplified to generate a curve that relates the initial quantity of the specific target in the Standard samples to the Ct. The standard curve is then used to derive by interpolation the initial sample template quantities based on their Ct values. All derived quantities were further normalized to neuron-specific β-tubulin III, whose translational status is unchanged by BDNF (Schratt et al., 2004). […]

TRBP = experiment: Immunoblotting for TRBP; details: 5 min after BDNF; +/-0.86
Method: Primary cultures of mouse hippocampal neurons (DIV 14 15) were incubated in serum-reduced medium (0.5% B27 supplement) for 2 hours, followed by […] Actinomycin-D for 10-20 min. Bath application of BDNF (100 ng/mL) was for designated periods (5 min-2 hours). The cultures were washed 3 times and harvested on ice with lysis buffer (50 mM Hepes, 150 mM NaCl, 10% Glycerol, 1 mM EDTA, 1% Triton-X-100, 0.2% SDS) plus freshly added protease inhibitor cocktail (Roche) and PMSF. Protein concentration was determined by Bradford Assay. If required, lysates were treated with Lambda Protein Phosphatase according to manufacturer's instructions (New England Biolabs […]). Equal amounts of lysate protein were resolved on SDS-PAGE gels, and electrotransferred to PVDF membrane. […]

cultured neurons = experiment: 35S-labelling total protein synthesis; details: mock or BDNF 100 ng/mL 2 hours, Actinomycin-D
Method: Cultured neurons were pre-incubated in media containing reduced-serum and Actinomycin-D as previously described, followed by washing and incubation for 10 min with methionine- and cysteine-free DMEM (Mediatech, Inc.), and ^35S labeling in the same DMEM with the addition of ^355-methionine/cysteine (^35S Met/Cys EasyTag Mix, Perkin Elmer) to a final concentration of […]. Mock- or BDNF stimulation was for 2 hours. Cells were washed and lysed with lysis buffer (see immunoblotting). Lysates were centrifuged and collected supernatants subjected to Bradford assay. To assess newly synthesized proteins, 200-500 μg of lysates proteins were precipitated with 10% trichloroacetic acid (TCA) for 1 hour on ice in the presence of 0.5% deoxycholate (DOC) to remove interfering phenol red. After centrifugation, protein pellets were washed with ice-cold 95% ethanol, solubilized in denaturing buffer ([…] Tris pH 8.3, 5 mM EDTA, 0.05% SDS, 6M urea), and subjected to liquid scintillation counting (Econofluor, New England Nuclear, Inc.). ^35S Disintegration per minute (DPM) was used to quantitate protein synthesis after subtraction of background readings.

B1: BDNF: brain-derived neurotrophic factor, a neurotrophin used to stimulate hippocampal neurons (protein, UniProt P23560 19-247, looked up)
Neurotrophic factor BDNF …: APMKEANIRGQGGLAYPGVRTHGTLESVNGPKAGSRGLTSLADTFEHVIEELLDEDQKVRPNEENNKDADLYTSRVMLSSQVPLEPPLLFLLEEYKNYLDAANMSMRVRRHSDPARRGELSVCDSISEWVTAADKKTAVDMSGGTVTVLEKVPVSKGQLKQYFYETKCNPMGYTKEGCRGIDKRHWNSQCRTTQSYVRALTMDSKKRIGWRFIRIDTSCVCTLTIKRGR
- detectable miRNAs with significantly altered levels decreased to <50% (mature miRNA): 10.6%
- detectable miRNAs with significantly altered levels increased more than 2-fold (mature miRNA): 89.4%
- KCC2 mRNA levels (KCC2 mRNA): reduced mRNA levels
- total TRBP protein levels, fold increase (TRBP): 2.61 fold
- total protein synthesis (35S incorporation) (cultured neurons): modest enhancement of total translation
